Test results taken from US7157616B2, “Method of selecting non-diabetogenic milk or milk products and milk or milk products so selected” (priority 1994, dated 2007).
Where two headings read alike, the source gives them in different places. Marks after values point to notes of the source that are not given here. Values belong to the molecule of their own block, whether it stands above or below them. Ends that are not written are not given here.

Columns and labels:
[1] = target: binding site on normal human PB monocyte/macrophages (human); assay: binding of tritiated hexapeptide to PB monocyte/macrophages; reference bovine A1 peptide
[2] = target: binding site on prediabetic human PB monocyte/macrophages (human); assay: as above
[3] = target: binding site on normal human PB monocyte/macrophages (human); assay: binding of tritiated hexapeptide to PB monocyte/macrophages
[4] = target: binding site on prediabetic human PB monocyte/macrophages (human); assay: as above
normal human macrophage = assay: Binding of tritiated hexapeptides to normal PB monocyte/macrophages; conditions: for CPM bound: +Glucose, NaN3, Captopril, Benzylsuccinate, Elastatinal
Source text: (§1) Using the method described by M'Hamiel Jaziri et al (1992) the human macrophage binding of the bovine peptides Pro-63 to Asn-68 (from the β-casein A1 and A2 variant sequences) were studied and compared with the binding of the peptide Val-54 Tyr-59 from human β-peptide to each of a normal human macrophage and a prediabetic human macrophage.

[5] = tested on: prediabetic human macrophage; assay: Binding of tritiated hexapeptides to prediabetic PB monocyte/macrophages; conditions: for CPM bound: +Glucose, NaN3, Captopril, Benzylsuccinate, Elastatinal
Source text: as §1

murine macrophages = conditions: cited from earlier work
human macrophage = conditions: cited from earlier work
NOD mice = assay: Diabetes incidence in NOD mice fed β-casein A1/A2 variants, whey or Bos indicus casein as 10% additions to Prosobee; assay type: in vivo, mouse; conditions: for Number of Animals Developing Diabetes by 250 days / Percentage of animals developing diabetes by 250 days: 10% addition to Prosobee infant formula from weaning
Source text: Similar groups of mice were fed a diet of the soy infant formula Prosobee™ and 10% W/W of: […]
d) Bos indicus casein, or
e) a 50/50 mixture of β-casein A1 variant/A2 variant.
The β-casein A1 variant precipitated diabetes in […] cases, the A2 variants in no cases and the A1/A2 mixture in 4 of 20 cases. The result mid-way between the […] results is consistent with there being no interaction between A1 and A2.
Lactic casein was manufactured in the New Zealand Dairy Research Institute Pilot Plant from the β-casein A1A1 and A2A2 phenotype bulk milks using methods essentially identical to those used in a standard New Zealand commercial lactic casein manufacturing dairy factory (see Muller, 1986). These caseins together with other constituents were then used in the feeding trials as described in Examples 2 and 3.

Molecule: Bovine A2: tritiated bovine hexapeptide Pro-63 to Asn-68 from the β-casein A2 variant sequence (proline at position 67) (PGPIPN; also: tritiated)
CPM bound (normal human macrophage; NORMAL PBM (N = 3)): 2900 CPM | CPM bound ([5]; PREDIABETIC PBM (N = 3)): 2750 CPM

Molecule: PGPIPN (also: tritiated) [bovine β-casein A2 hexapeptide Pro-63 to Asn-68]
CPM [3]: 2900 CPM | CPM [4]: 2750 CPM

B1: β-casein A1 variant: bovine β-casein A1 variant (SEQ ID NO: 2); casein made from milk of β-casein A1A1 phenotype cows (protein)
chain: RELEELNVPGEIVESLSSSEESITRIDKKIEKFQSEEQQQTEDELQDKIHPFAQTQSLVYPFPGPIHNSLPQNIPPLTQTPVVVPPFLQPEVMGVSKVKEAMAPKHKEMPFPKYPVQPFTESQSLTLTDVENLHLPPLLLQSWMHQPHQPLPPTVMFPPQSVLSLSQSKVLPVPEKAVPYPQRDMPIQAFLLYQQPVLGPVRGPFPIIV
diabetogenic activity (words) (NOD mice): diabetogenic | Number of Animals Developing Diabetes by 250 days (NOD mice): 9 | Percentage of animals developing diabetes by 250 days (NOD mice): 45% | diabetogenic activity (words) (NOD mice; listed as A1 variant): does have diabetogenic activity

B2: β-casein A2 variant: bovine β-casein A2 variant; casein made from milk of β-casein A2A2 phenotype cows (protein)
chain: RELEELNVPGEIVESLSSSEESITRIDKKIEKFQSEEQQQTEDELQDKIHPFAQTQSLVYPFPGPIPNSLPQNIPPLTQTPVVVPPFLQPEVMGVSKVKEAMAPKHKEMPFPKYPVQPFTESQSLTLTDVENLHLPPLLLQSWMHQPHQPLPPTVMFPPQSVLSLSQSKVLPVPEKAVPYPQRDMPIQAFLLYQQPVLGPVRGPFPIIV
diabetogenic activity (words) (NOD mice): is not | Number of Animals Developing Diabetes by 250 days (NOD mice): 0 | Percentage of animals developing diabetes by 250 days (NOD mice): 0% | Number of Animals Developing Diabetes by 250 days (NOD mice; listed as A2 variants): no cases | diabetogenic activity (words) (NOD mice; listed as A2 variant): do not show diabetogenic activity

Continued, in another order:

Ratio */** (human CPM to bovine A1 CPM) [1]: 1.2 | Ratio */** (human CPM to bovine A1 CPM) [2]: 0.31 | CPM [3]: 2750 CPM | CPM [4]: 1400 CPM
Molecule: peptide Val-54 to Tyr-59 from human β-casein (from UniProt P05814 69-74)

CPM bound (normal human macrophage; NORMAL PBM (N = 3)): 2220** CPM | binding to normal human macrophages (normal human macrophage): bind specifically | CPM bound ([5]; PREDIABETIC PBM (N = 3)): 4500** CPM | binding to prediabetic macrophages [5]: bind specifically
Molecule: Pro-Gly-Pro-Ile-His-Asn (PGPIHN; also: tritium label) [Bovine A1]
phagocytic activity of murine macrophages (murine macrophages): stimulate the phagocytic activity

Ratio */** (Human / Bovine A1 CPM) (normal human macrophage; NORMAL PBM (N = 3)): 1.2 | CPM bound (normal human macrophage; NORMAL PBM (N = 3)): 2750* CPM | binding to normal human macrophages (normal human macrophage): bind specifically | Ratio */** (Human / Bovine A1 CPM) ([5]; PREDIABETIC PBM (N = 3)): 0.31 | CPM bound ([5]; PREDIABETIC PBM (N = 3)): 1400* CPM | binding to prediabetic macrophages [5]: bind specifically
Molecule: Human: tritiated hexapeptide Val-54 to Tyr-59 from human β-casein (VEPIPY; also: tritiated) [reference compound]
binding site on the human macrophage (human macrophage): specific binding site

CPM [3]: 2220 CPM | CPM [4]: 4500 CPM
Molecule: PGPIHN (also: tritiated) [bovine β-casein A1 hexapeptide Pro-63 to Asn-68 (Pro-Gly-Pro-Ile-His-Asn)]
